# Results: patent US20250092426, “CAS ENDONUCLEASES AND RELATED METHODS” (Flagship Pioneering Innovations VII, LLC, published 2025)
# T1: CasEnd-12 (synthetic construct)
# T1 chain: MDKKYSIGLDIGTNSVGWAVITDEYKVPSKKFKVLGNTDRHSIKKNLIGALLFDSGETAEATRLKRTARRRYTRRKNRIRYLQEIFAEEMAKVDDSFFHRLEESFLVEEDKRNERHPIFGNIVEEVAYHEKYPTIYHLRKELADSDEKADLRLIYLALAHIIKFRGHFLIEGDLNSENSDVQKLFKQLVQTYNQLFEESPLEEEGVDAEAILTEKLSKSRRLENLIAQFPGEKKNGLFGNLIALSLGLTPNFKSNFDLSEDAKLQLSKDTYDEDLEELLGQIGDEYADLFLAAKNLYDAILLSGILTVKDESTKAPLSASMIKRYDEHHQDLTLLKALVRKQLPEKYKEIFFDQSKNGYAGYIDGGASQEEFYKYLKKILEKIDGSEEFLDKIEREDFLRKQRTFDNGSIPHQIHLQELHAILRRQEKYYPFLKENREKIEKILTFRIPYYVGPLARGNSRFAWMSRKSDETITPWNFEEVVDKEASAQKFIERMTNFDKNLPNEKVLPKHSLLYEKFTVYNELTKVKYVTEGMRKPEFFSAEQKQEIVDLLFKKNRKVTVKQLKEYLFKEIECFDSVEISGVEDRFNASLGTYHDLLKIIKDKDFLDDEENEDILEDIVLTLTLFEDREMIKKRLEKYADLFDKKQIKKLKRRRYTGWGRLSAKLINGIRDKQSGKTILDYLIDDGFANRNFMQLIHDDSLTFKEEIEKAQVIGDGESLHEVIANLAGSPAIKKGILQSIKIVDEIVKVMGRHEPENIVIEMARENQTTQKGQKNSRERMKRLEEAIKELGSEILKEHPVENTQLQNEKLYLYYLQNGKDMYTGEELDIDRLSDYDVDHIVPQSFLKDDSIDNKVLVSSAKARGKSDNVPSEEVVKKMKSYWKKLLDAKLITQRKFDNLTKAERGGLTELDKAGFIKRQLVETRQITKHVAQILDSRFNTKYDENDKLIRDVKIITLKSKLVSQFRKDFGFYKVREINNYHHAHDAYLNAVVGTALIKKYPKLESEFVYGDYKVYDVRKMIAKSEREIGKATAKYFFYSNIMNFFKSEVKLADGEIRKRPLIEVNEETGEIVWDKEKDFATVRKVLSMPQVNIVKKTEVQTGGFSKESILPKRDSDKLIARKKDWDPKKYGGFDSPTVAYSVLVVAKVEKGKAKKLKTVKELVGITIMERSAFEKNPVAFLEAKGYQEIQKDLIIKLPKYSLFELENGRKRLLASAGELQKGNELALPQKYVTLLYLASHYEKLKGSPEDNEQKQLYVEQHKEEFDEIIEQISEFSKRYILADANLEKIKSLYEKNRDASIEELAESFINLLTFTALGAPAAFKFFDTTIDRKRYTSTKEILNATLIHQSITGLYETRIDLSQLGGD
# Molecular target: T1, CasEnd-12
# Test: cell_activity; +++; HEK293T; PAM not stated
# Method: The ability of the candidate endonucleases, including endonucleases 1-38 (CasEnds 1-38) (set forth in Table 1 and SEQ ID NOS: 1-38, respectively), to mediate target nucleic acid editing was assessed utilizing a blue fluorescent protein (BFP) to green fluorescent protein (GFP) conversion assay, wherein programmed nucleotide editing of the BFP gene was measured by the expression of GFP (signifying the conversion of […] via the programmed nucleotide edit in the BFP gene). The conversion assay was conducted utilizing the reverse transcriptase-based system (as described above in Example 2) comprising a template RNA (designed to convert BFP to GFP) and a fusion protein comprising a retroviral reverse transcriptase and the individual subject Cas endonuclease. The amino acid sequence of the base portion of the fusion protein (without the individual subject Cas endonuclease) is set forth in Table 7 (SEQ ID NO: 43).
# Briefly, 200 ng of plasmid DNA encoding the subject fusion protein (containing one of the subject CasEnds) and 200 ng of template RNA (in plasmid format) were added to 25 μL SF buffer containing 250,000 HEK293T BFP-expressing cells. Nucleofection was mediated utilizing program DS-150. The day of nucleofection was marked as day 0. At day 4, the cells were harvested and analyzed by flow cytometry to assess the level of BFP and GFP expression in HEK293T cells. Cells having GFP signal were defined as having undergone a successful editing event, and the percent of cells that were GFP+ on day 4 was used to determine the performance of each Cas endonuclease.
binder,measurement,value
BFP-to-GFP template RNA ; BFP reporter protospacer (ssRNA ; dsDNA) RNA: GCCGAAGCACUGCACGCCGUGUUUUAGAGCUAGAAAUAGCAAGUUAAAAUAAGGCUAGUCCGUUAUCAACUUGAAAAAGUGGCACCGAGUCGGUGCACCCUGACGUACGGCGUGCAGUGCUU DNA 1: GCCGAAGCACTGCACGCCGT DNA 2: ACGGCGTGCAGTGCTTCGGC,activity,≥ 100 % of reference
